This is an account of results in patent US7323541B2, “Polypeptide DNA thereof and use of the same” (Takeda Pharmaceutical Company Limited, priority 2001, dated 2008).

The target in this experiment is T1, TGR23-2 expressing CHO cells (Homo sapiens, UniProt Q6W5P4, N107I/Q344R).
T1 construct: the clones having the cDNA of TGR23-2, which is contained in pTB2174, were selected; expressed in transfected cells; host or cells: hamster CHO/dhfr- cells, vector pAKKO-111H (pAKKO-TGR23-2)
T1 sequence (Q6W5P4 1-371 N107I/Q344R): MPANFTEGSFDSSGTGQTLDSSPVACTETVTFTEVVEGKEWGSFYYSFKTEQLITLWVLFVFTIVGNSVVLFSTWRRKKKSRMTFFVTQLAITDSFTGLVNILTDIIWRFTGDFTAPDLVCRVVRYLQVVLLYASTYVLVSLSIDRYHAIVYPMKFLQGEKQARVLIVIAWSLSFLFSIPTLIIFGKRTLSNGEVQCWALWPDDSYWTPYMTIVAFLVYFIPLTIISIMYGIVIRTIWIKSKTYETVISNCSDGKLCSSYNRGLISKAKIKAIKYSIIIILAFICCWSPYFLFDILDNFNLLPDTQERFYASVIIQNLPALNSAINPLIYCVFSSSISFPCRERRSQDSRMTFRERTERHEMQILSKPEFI
The experiment in a line: Enhancing activity of intracellular cAMP production. The experiment is classed as cell-based. The settings on record: with forskolin. The protocol: The CHO/TGR23-2 cells prepared in Example 1 and selected in Example 2 were plated on 24-well plate at 7×10^4 cells/well and cultured for 48 hours. The cells were washed with αMEM medium (pH7.5) containing 0.2 mM 3-isobutyl-methylxanthine, 0.05% BSA and 20 mM HEPES (hereafter, αMEM medium (pH7.5) containing 0.2 mM 3-isobutyl-methylxanthine, 0.05% BSA and 20 mM HEPES may be referred to as a reaction buffer). Subsequently, 0.5 ml of the reaction buffer was added, and the solution was incubated for 30 minutes in the incubator. The reaction buffer was removed and 0.25 ml of the reaction buffer was freshly added to the cells. Then, the cells were admixed with a sample and 0.25 ml of the reaction buffer containing 2 μM forskoline, and incubated at 37° C. for 30 minutes. Intracellular cAMP was extracted by removing the reaction solution and adding 0.5 ml of the solution for cell lysis attached with cAMP EIA Kit (Applied Biosystems). The cAMP level in the extract was quantified with the same kit. Based on this measured value, a calculation was made using the following formula, and the enhancing/inhibiting activity for cAMP production was represented by % of control. The activity of the sample-adding group was calculated using a control value configured in each plate. % of control=(X−C)/(T−C)×100
X: The cAMP level in the sample-adding group
T: The means of the cAMP level in 3 wells of positive control (no sample, with stimulus of forskoline)
C: The means of the cAMP level in 3 wells of negative control (no sample, without stimulus of forskoline)
In addition, for the same sample, in accordance with the method shown in Example 4, an arachidonic acid metabolite releasing activity was assayed.
Four microlitters each of the above-mentioned HPLC active fractions of rat whole brain extracts (Fraction numbers 18, 20 and 22 to 23) was added to 100 μl of 0.2 M ammonium acetate and incubated at 37° C. for 2 hours with 3 μg of Pronase. Subsequently, Pronase added, was inactivated by heating in boiling water for 10 minutes. To this solution, one ml of distilled water containing 0.05 mg of BSA and 0.05 mg of CHAPS was added. Further, it was lyophilized. For the lyophilized sample, enhancing activity for intracellular cAMP production was assayed by adding to TGR23-2 expressing CHO cells according to the method shown in Example 3.
Human TGR23-2 ligand (1-20) prepared by the method described in Example 17 was administered to TGR23-1 expressing CHO cells and TGR23-2 expressing CHO cells at a variety of concentrations according to the method described in Example 3, and the enhancing activity of intracellular cAMP production was determined.
Further, human TGR23-2 ligand (1-20) and rat TGR23-2 ligand (1-18) prepared by the method described in Example 19 were administered to TGR23-1 expressing CHO cells and TGR23-2 expressing CHO cells at a variety of concentrations, and the same assay as described above was carried out under the condition of no forskolin. A calculation was made using the following formula, and the enhancing activity for cAMP production was represented by % of control: % of control=X/C×100;
X: The cAMP level in the sample-adding group; and
C: Control (no sample, without stimulus of forskoline).
On the technique in general: cAMP levels reflect the balance of adenylyl cyclase and phosphodiesterase activity.

On to “SFRNGVGSGVKKTS (Rat) [rat TGR23-2 ligand (1-14)]”, for which the “enhancing activity of intracellular cAMP production” value was “specifically exhibits an enhancing activity for cAMP production”. For “SFRNGVGSGVKKTSF (Rat) [rat TGR23-2 ligand (1-15)]”, the “enhancing activity of intracellular cAMP production” value was “specifically exhibits an enhancing activity for cAMP production”.
